The values that follow come from paper PMC10663608.

The test has as its target human EGFR tagged with mTurquoise at the C-terminus (EGFR-mTurquoise) (human) (UniProt P00533).

On to “EGF ligand from mouse labeled with rhodamine at its N-terminus (rho-mEGF)”, for which the K (resp) of the transducer function for Y1068 phosphorylation (phosphorylation against ligand-bound EGFR fraction in single vesicles) (fraction of ligand-bound receptors) turned out to be 0.4 and the K (resp) of the transducer function for Y1173 phosphorylation (phosphorylation against ligand-bound EGFR fraction in single vesicles) (fraction of ligand-bound receptors) amounted to 0.86.
